Experimental data from IntAct's records for PubMed 36931259.

B1: 14-3-3 protein sigma (Homo sapiens), P31947 (parent)
chain: MERASLIQKAKLAEQAERYEDMAAFMKGAVEKGEELSCEERNLLSVAYKNVVGGQRAAWRVLSSIEQKSNEEGSEEKGPEVREYREKVETELQGVCDTVLGLLDSHLIKEAGDAESRVFYLKMKGDYYRYLAEVATGDDKKRIIDSARSAYQEAMDISKKEMPPTNPIRLGLALNFSVFHYEIANSPEEAISLAKTTFDEAMADLHTLSEDSYKDSTLIMQLLRDNLTLWTADNAGEEGGEAPQEPQS
partner: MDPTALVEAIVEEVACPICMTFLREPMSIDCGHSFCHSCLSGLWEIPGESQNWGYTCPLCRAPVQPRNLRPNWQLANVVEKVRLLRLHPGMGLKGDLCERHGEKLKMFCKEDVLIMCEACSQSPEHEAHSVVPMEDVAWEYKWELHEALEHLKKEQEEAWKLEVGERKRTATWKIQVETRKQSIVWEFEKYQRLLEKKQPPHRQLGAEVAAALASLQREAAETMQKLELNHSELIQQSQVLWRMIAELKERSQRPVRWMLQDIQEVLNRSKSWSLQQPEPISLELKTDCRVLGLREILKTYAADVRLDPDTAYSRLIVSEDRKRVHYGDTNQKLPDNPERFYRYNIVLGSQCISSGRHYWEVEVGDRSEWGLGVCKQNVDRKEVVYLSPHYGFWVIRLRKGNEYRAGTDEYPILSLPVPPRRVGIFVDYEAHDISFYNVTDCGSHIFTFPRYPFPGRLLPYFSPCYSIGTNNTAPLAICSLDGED
B2: 14-3-3 protein sigma (Homo sapiens), P31947 (parent)
chain: B1 chain
partner: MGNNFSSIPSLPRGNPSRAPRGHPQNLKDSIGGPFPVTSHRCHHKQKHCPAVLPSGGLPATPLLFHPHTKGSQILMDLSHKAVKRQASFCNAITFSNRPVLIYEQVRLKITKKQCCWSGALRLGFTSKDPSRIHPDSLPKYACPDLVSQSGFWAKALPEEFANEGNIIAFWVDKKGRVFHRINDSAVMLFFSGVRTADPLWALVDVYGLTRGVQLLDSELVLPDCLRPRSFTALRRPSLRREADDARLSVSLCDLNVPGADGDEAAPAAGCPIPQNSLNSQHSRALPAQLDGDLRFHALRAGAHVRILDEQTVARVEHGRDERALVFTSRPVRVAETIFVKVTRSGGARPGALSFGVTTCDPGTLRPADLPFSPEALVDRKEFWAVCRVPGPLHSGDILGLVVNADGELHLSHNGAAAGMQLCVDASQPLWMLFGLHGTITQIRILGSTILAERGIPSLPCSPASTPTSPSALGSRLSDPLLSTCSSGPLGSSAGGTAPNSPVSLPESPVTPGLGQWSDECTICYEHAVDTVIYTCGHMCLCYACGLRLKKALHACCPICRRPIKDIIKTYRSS
B3: 14-3-3 protein sigma (Homo sapiens), P31947 (parent)
chain: B1 chain
partner: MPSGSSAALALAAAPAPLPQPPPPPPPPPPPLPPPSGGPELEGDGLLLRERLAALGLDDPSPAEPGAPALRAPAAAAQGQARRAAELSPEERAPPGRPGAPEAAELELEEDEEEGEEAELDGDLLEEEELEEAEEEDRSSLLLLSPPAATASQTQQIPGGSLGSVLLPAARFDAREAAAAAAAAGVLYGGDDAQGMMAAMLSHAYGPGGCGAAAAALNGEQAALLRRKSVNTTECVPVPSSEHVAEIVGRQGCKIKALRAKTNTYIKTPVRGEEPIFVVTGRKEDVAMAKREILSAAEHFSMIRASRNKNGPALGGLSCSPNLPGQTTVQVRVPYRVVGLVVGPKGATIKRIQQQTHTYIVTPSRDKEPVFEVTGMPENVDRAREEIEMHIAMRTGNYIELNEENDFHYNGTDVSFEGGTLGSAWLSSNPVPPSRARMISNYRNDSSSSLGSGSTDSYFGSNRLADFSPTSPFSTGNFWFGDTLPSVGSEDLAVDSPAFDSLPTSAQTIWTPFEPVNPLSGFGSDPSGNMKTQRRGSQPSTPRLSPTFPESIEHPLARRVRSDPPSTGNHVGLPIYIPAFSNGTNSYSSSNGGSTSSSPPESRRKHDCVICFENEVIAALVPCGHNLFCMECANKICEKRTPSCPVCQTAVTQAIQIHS
B4: 14-3-3 protein sigma (Homo sapiens), P31947 (parent)
chain: B1 chain
partner: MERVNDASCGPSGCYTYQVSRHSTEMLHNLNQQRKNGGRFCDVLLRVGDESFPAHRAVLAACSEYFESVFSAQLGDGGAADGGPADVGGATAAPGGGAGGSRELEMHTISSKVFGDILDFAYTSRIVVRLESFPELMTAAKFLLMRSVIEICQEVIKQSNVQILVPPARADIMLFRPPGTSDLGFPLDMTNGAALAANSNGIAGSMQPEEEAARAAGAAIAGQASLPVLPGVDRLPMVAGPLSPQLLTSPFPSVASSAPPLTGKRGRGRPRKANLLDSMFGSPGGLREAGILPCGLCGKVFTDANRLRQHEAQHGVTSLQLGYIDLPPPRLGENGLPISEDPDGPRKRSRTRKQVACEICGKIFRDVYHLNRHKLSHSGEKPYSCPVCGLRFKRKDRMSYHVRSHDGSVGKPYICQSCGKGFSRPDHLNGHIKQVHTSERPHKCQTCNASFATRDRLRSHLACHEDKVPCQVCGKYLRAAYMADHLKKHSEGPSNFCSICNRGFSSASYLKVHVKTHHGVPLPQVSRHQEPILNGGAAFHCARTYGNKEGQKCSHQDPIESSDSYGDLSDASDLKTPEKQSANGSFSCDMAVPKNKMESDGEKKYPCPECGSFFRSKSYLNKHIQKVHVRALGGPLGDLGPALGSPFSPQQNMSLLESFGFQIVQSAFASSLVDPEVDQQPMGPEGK
B5: 14-3-3 protein sigma (Homo sapiens), P31947 (parent)
chain: B1 chain
partner: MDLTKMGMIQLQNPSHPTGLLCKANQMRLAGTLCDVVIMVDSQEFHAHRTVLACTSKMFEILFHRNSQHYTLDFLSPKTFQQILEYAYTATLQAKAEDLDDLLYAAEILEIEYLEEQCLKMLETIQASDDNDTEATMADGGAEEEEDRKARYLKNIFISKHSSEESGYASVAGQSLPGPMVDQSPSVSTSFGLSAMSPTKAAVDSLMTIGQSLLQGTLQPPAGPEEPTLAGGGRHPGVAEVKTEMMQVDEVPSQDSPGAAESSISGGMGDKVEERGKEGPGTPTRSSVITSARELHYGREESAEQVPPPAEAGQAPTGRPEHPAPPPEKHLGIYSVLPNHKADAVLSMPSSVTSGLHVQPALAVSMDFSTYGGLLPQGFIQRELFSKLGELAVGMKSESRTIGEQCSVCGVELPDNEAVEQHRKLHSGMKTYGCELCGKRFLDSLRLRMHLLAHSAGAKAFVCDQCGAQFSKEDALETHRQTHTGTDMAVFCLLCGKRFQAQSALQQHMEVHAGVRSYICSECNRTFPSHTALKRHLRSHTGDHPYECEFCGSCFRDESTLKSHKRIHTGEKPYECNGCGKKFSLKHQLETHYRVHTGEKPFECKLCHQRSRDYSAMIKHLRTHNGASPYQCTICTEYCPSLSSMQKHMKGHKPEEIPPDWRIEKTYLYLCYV
B6: 14-3-3 protein sigma (Homo sapiens), P31947 (parent)
chain: B1 chain
partner: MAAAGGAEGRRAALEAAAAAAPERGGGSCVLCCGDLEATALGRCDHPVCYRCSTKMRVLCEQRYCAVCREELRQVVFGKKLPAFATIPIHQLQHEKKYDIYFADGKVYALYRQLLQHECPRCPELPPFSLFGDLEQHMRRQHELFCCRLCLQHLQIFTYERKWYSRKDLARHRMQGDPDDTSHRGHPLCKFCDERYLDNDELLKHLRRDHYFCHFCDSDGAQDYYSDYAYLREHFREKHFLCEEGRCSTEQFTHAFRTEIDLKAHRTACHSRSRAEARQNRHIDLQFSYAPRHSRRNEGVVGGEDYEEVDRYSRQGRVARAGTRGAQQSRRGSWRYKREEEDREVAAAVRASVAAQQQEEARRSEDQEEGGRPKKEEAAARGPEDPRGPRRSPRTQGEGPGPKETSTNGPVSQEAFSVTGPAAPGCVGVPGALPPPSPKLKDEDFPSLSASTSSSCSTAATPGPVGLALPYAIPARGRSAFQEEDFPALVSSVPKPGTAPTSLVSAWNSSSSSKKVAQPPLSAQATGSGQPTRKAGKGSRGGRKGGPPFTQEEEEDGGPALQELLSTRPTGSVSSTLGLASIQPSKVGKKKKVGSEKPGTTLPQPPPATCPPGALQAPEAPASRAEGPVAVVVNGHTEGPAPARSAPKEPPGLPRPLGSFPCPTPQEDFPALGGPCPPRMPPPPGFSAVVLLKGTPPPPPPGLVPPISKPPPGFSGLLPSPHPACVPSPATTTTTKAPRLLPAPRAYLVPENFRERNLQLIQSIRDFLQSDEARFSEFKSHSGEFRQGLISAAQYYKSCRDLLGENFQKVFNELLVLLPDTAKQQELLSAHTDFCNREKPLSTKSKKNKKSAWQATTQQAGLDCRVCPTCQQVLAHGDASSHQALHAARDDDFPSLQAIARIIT

Variants of: B1
Conditions: with tri68_human TRIM68, Q6AZZ1

| Variant | effect of a mutation on the interaction |
| --- | --- |
| K49E;R56E;V178D | decreasing interaction strength |

Variants of: B2
Conditions: with neul1_human NEURL1, O76050

| Variant | effect of a mutation on the interaction |
| --- | --- |
| K49E;R56E;V178D | decreasing interaction strength |

Variants of: B3
Conditions: with mex3c_human MEX3C

| Variant | effect of a mutation on the interaction |
| --- | --- |
| K49E;R56E;V178D | decreasing interaction strength |

Variants of: B4
Conditions: with patz1_human PATZ1, Q9HBE1

| Variant | effect of a mutation on the interaction |
| --- | --- |
| K49E;R56E;V178D | decreasing interaction strength |

Variants of: B5
Conditions: with zbt16_human ZBTB16, Q05516

| Variant | effect of a mutation on the interaction |
| --- | --- |
| K49E;R56E;V178D | decreasing interaction strength |

Variants of: B6
Conditions: with zn598_human ZNF598, Q86UK7

| Variant | effect of a mutation on the interaction |
| --- | --- |
| K49E;R56E;V178D | decreasing interaction strength |
